For this experiment, the target named is Reelin from frontal cortex of non-demented (ND) subjects (human (endogenous in frontal cortex)) (UniProt P78509). Kind of experiment: native gel or EMSA; blue native-PAGE of human frontal cortex extracts in 25 mM Bis-Tris pH 7.0, 0.5% DDM, 20% glycerol; samples not boiled; anti-Reelin immunoblot.

Take “Reelin from frontal cortex of non-demented (ND) subjects (from UniProt P78509 26-3460) (natural protein)”: the stoichiometry N is 2.

In general, stoichiometry N refers to a count of units in the complex or per binding partner.

Values taken from publication PMC3741172.
